The target in the assay is telomerase of HT1080 cells (telomerase-containing fraction, or cellular telomerase in stable HT1080 lines) (human) (UniProt O14746). As to the kind of experiment: cell-based or functional assay.
Chain of telomerase of HT1080 cells (telomerase-containing fraction, or cellular telomerase in stable HT1080 lines) (human) (O14746 whole entry): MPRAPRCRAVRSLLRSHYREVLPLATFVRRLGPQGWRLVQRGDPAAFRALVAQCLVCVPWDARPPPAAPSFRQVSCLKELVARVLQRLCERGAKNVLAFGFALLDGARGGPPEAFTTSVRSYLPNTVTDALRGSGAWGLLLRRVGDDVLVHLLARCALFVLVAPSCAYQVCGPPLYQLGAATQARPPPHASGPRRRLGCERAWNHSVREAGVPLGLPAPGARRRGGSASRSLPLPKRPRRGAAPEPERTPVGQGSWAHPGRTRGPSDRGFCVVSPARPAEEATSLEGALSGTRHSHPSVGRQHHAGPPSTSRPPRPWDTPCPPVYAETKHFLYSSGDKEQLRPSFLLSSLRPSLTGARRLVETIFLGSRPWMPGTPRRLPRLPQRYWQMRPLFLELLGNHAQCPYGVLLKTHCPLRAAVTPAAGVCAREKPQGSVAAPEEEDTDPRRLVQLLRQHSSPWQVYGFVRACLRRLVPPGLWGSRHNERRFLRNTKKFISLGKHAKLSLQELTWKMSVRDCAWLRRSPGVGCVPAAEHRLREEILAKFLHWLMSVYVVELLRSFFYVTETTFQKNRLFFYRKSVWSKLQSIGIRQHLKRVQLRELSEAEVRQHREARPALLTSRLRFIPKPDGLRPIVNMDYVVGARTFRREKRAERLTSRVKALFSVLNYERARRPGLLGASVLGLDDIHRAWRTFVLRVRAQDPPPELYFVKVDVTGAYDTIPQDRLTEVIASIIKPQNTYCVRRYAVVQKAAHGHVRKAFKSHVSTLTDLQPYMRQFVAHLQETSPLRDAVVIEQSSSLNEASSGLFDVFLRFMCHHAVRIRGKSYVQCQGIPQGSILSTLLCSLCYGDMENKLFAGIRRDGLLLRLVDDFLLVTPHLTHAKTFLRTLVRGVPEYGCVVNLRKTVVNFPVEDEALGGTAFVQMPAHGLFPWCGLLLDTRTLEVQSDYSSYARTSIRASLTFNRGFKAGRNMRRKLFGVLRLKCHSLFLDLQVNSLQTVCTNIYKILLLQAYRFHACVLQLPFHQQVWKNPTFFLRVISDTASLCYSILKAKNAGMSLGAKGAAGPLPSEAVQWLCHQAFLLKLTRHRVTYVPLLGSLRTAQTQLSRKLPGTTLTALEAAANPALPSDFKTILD

For the substance “His-PinX1 (N-terminal His fusion of PinX1, pET28a) (from UniProt Q96BK5 1-328)”, the IC50 of inhibition of telomerase activity in vitro (TRAP assay) was determined as 25 nM.

The values above are taken from patent US20040142357A1.
